Reference: publication doi:10.1101/2021.05.05.442822

Assays:
H3K9me0 peptide = assay: FP; details: complex
[1] = target: G9a ANK-SET, N-terminally 6xHis-tagged (His:G9a) or N-terminally Maltose Binding Protein tagged (MBP:G9a) (human); assay: pull-down
[2] = target: fluoresceinated H3 1-20 K9me2 peptide (UniProt P68431); assay: fluorescence polarisation
[3] = target: unmethylated (H3K9me0) mononucleosome; assay: fluorescence polarisation
[4] = target: G9a ANK-SET, tag cleaved (human); assay: SEC-MALS

G9a ANK-SET homodimer, sequence (Q96KQ7 whole entry, looked up): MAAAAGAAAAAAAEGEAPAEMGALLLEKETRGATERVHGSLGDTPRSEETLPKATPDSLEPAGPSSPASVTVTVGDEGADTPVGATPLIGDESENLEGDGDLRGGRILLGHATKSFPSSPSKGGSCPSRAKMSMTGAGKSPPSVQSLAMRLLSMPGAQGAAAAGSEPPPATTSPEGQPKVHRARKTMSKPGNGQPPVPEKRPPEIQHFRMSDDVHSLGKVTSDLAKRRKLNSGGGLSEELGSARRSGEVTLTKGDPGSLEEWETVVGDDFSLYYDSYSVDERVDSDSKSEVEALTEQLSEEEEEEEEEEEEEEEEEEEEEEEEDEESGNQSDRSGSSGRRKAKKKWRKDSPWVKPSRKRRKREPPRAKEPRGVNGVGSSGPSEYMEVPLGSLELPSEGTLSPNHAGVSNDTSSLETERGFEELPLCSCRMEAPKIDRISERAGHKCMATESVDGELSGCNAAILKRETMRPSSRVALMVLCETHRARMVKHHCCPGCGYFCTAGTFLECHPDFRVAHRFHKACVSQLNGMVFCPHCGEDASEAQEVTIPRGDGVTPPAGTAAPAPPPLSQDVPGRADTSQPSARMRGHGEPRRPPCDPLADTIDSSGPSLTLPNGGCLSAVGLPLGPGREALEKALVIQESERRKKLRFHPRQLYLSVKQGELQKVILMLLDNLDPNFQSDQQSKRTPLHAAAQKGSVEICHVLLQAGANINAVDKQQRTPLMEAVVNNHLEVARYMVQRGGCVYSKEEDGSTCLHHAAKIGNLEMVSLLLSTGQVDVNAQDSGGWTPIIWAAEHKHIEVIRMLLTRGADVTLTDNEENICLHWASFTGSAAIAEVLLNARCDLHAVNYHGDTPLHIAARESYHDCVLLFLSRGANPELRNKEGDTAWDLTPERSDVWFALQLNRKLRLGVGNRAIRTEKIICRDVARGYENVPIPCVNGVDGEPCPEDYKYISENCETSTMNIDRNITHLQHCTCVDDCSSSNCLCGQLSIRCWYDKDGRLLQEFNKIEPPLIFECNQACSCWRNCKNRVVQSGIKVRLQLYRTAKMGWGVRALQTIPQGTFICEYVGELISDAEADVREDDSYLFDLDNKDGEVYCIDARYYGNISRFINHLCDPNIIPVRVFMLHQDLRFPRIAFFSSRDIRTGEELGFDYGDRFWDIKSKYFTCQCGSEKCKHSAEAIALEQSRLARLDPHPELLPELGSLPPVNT

G9a ANK-SET homodimer (from UniProt Q96KQ7)
Kd (H3K9me0 peptide): 100 µM

G9a ANK-SET, N-terminally 6xHis-tagged (His:G9a) or N-terminally Maltose Binding Protein tagged (MBP:G9a) (domain or fragment)
stoichiometry N [1]: 2

GLP ANK-SET homodimer (complex)
fold reduced binding [2]: 12.5 times | Kd [3]: 26.3 µM

GLP ANK-SET, N-terminally Maltose Binding Protein tagged (MBP:GLP) (domain or fragment)
stoichiometry N [1]: 1

GLP ANK-SET, tag cleaved (domain or fragment)
stoichiometry N [4]: 1
